Consider 13 molecules from patent publication US20210130452A1 (Merck KGaA, published 2021).

For one assay, the target named is T1, human IL-17E (human, UniProt Q9H293 33-177).
T1 construct: expressed in E. coli; also called hIL-17E
T1 sequence (looked up): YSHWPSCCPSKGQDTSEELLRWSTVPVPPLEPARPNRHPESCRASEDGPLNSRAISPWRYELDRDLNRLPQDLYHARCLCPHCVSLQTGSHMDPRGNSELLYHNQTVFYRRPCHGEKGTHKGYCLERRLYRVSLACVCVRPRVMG
The experiment in a line: SPR, cytokine on chip. (In SPR one partner is held on a chip, and binding of the other changes the refractive index at the surface.)

A further assay addresses T2, human IL-17C (human, UniProt Q9P0M4 19-197).
T2 construct: expressed in E. coli; also called hIL-17C
T2 sequence (looked up): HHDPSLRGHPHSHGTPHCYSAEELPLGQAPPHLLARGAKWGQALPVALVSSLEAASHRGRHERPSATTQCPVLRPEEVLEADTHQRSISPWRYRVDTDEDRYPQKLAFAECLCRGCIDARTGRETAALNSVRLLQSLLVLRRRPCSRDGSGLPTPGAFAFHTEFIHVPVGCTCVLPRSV
The experiment in a line: SPR, cytokine on chip.

The target of another assay is T3, human IL-17B (human, UniProt Q9UHF5 21-180).
T3 construct: expressed in E. coli; also called hIL-17B
T3 sequence (looked up): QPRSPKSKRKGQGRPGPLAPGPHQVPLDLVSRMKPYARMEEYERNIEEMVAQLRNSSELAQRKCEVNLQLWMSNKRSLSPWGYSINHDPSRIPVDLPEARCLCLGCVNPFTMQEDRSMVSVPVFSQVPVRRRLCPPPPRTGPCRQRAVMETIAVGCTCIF
In words: SPR, cytokine on chip.

The target in the next assay is T4, human IL-17D (human, UniProt Q8TAD2 18-202, limits assumed).
T4 construct: expressed in E. coli; also called hIL-17D
T4 sequence (looked up): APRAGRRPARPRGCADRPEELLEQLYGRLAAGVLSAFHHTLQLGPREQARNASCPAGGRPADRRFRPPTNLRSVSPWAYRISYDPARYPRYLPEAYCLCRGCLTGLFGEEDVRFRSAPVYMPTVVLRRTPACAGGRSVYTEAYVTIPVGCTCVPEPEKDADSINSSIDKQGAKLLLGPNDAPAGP
In words: SPR, cytokine on chip.

In the next assay the target is T5, rat IL-17A (rat, UniProt Q61453 18-150, limits assumed).
T5 construct: made in E. coli, bought
T5 sequence (looked up): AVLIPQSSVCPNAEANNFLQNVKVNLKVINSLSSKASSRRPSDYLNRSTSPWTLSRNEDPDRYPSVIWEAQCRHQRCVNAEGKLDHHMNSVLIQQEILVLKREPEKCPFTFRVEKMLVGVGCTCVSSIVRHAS
In words: binding ELISA. A general note: An ELISA detects its analyte on a solid surface through an enzyme-linked reagent.

The next assay has as its target T6, rat IL-17F (rat, UniProt Q5BJ95 29-161).
T6 sequence (looked up): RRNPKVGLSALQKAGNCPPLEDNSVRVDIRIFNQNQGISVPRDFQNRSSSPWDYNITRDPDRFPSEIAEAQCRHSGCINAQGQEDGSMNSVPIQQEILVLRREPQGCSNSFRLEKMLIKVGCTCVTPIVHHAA
In words: binding ELISA.

Another assay deals with T7, mouse IL-17F (mouse, UniProt Q7TNI7 29-161).
T7 sequence (looked up): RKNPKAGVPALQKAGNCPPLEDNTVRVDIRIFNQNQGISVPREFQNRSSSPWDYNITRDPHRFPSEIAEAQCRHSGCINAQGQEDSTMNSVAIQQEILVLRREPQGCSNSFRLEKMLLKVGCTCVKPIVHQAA
The experiment in a line: binding ELISA.

The target in another assay is T8, mouse IL-17A (mouse, UniProt Q62386 26-158).
T8 sequence (looked up): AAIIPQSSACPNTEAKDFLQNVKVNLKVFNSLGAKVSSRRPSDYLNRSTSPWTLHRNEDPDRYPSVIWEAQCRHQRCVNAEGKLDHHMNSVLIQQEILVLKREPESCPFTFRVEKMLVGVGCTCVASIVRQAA
In words: binding ELISA.

The target in assay [1] is T9, human IL-17A/F heterodimer (human, UniProt Q16552 24-155; Q96PD4 31-163, limits assumed).
T9 construct: bought, made in E. coli (R&D Systems 5194-IL/CF); also called hIL-17A/F; hIL17A/F
The experiment in a line: SPR (Biacore) off-rate.

In assay [2] the target is T10, human IL-17A (human, UniProt Q16552 24-155).
T10 construct: secreted form made in Hek293 cells (GenBank U32659); also called hIL-17A; hIL17A
The experiment in a line: SPR (Biacore) off-rate.

The target in assay [3] is T11, human IL-17F (human, UniProt Q96PD4 31-163).
T11 construct: made in Hek293 cells (GenBank AF384857); also called hIL-17F; hIL17F
T11 sequence: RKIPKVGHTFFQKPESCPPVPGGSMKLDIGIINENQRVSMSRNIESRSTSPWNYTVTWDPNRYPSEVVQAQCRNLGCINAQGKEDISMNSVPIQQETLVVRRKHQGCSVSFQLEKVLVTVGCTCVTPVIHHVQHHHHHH
In words: SPR (Biacore) off-rate.

The target in assay [4] is T11, human IL-17F. In words: AlphaScreen hIL-17F-IL-17RC; vs IL17MS13E02. On the technique in general: Alpha assays give light when donor and acceptor beads are brought close together.
Assay [5] addresses T10, human IL-17A. In words: AlphaScreen hIL-17A-IL-17RA; vs IL17MS13E02.

Substitutions are numbered along the chain they refer to. A value given as a limit tells only on which side of the number the result lay.

T10 sequence (Q16552 other isoform, or with tags, fused parts or gaps): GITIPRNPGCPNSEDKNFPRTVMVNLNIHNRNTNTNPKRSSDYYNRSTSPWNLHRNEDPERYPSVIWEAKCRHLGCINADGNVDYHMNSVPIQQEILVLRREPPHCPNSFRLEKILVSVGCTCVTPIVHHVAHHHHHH
Source text for human IL-17B: (§1) Human IL-17B, IL-17C, IL-17D or IL-17E were all expressed in E. coli, and covalently bound to a CM sensor chip surface via amine coupling using EDC/NHS for activation and HCl for deactivation.
(§2) Next, binding buffer was sent over the chip at the same flow rate to allow spontaneous dissociation of bound Nanobody or antibody.
Source text for human IL-17C: as §1, §2
Source text for human IL-17D: as §1, §2
Source text for human IL-17E: as §1, §2
Procedure for mouse IL-17A: (§3) Binding of a selected panel of anti-IL-17 Nanobodies to IL-17 of other species was assessed using a binding ELISA. […] HRP (horseradish peroxidase) conjugated anti-myc (Serotec, MCA 2200P) was used for detection using esTMB as substrate.
Procedure for mouse IL-17F: as §3
Procedure for rat IL-17A: as §3
Procedure for rat IL-17F: as §3

B1: 01A01 (VHH)
VHH: EVQLVESGGGLVQAGGSLRLSCAASGFTFDDYDIGWFRQAPGKEREGVSCFTSSDGRTFYADSVKGRFTVSADNAKNTVYLQMNSLEPEDTAVYFCAAVNTFDESAYAAFACYDVVRWGQGTQVTVSS
notes: Class 4
For the molecule B1, the binding result with human IL-17E is “no binding”; with human IL-17C, “no binding”; with human IL-17B, “no binding”; with human IL-17D it was “no binding”; with rat IL-17A it was “no binding (tested: 250 nM)”; in the assay with rat IL-17F, “no binding (tested: 250 nM)”. Further, the binding result with mouse IL-17F and with mouse IL-17A was “no binding (tested: 250 nM)” throughout.

B2: 13B03 (VHH)
VHH: EVQLVESGGGSVQAGDSLRLSCAASGRANSINWFGWFRQTPGKEREFVAGIRWSDAYTEYANSVKGRFTISRDNAKNTVDLQMDSLKPEDTAVYYCVLDLSTVRYWGQGTQVTVSS
notes: Class 4; also called IL17MS13B03
In the case of B2, the binding result was “no binding” with human IL-17E; “no binding” in the assay with human IL-17C; “no binding” in the assay with human IL-17B; “no binding” with human IL-17D; “no binding (tested: 250 nM)” in the assay with rat IL-17A; “no binding (tested: 250 nM)” in the assay with rat IL-17F. The binding result in the assay with mouse IL-17F and with mouse IL-17A was “no binding (tested: 250 nM)” in each case.

B3: 11C08 (VHH)
VHH: EVQLVESGGGLVQAGGSLRLSCAASGVIFRLNAMGWYRAAPGKQRELVAIIVNGGSTNYADSVKGRFTISRDSAKNAVYLQMNSLKPEDTAVYYCYYNIPGDVYWGQGTQVTVSS
notes: Class 4
On to B3, for which the binding result is on record as “no binding” with human IL-17E; “no binding” with human IL-17C; “no binding” in the assay with human IL-17B; “no binding” with human IL-17D; “no binding (tested: 250 nM)” in the assay with rat IL-17A; “no binding (tested: 250 nM)” with rat IL-17F. Further, the binding result in the assay with mouse IL-17F and with mouse IL-17A was “no binding (tested: 250 nM)” each time.

B4: 13B05 (VHH)
VHH: EVQLVESGGRLVQAGGSLRLSCAASGRTFTSYPMGWFRQAPGKEREFVAAISMSGDDTAYTDFVRGRFTISRDDARNTVYLHMTSLKPEDTAVYYCAARTSYDGTYDYIDDYSYWGQGTQVTVSS
notes: Class 4
Regarding B4, the binding result in the assay with human IL-17E was “no binding”; with human IL-17C, “no binding”; in the assay with human IL-17B it was “no binding”; with human IL-17D, “no binding”; with rat IL-17A it was “no binding (tested: 250 nM)”; with rat IL-17F it was “no binding (tested: 250 nM)”. In addition, the binding result with mouse IL-17F and in the assay with mouse IL-17A was “no binding (tested: 250 nM)” throughout.

B5: 17C01 (VHH)
VHH: B4 VHH with S21P, T58A, T61A
notes: Class 4
For B5, the binding result is given as “no binding” in the assay with human IL-17E; “no binding” with human IL-17C; “no binding” with human IL-17B; “no binding” in the assay with human IL-17D; “no binding (tested: 250 nM)” in the assay with rat IL-17A; “no binding (tested: 250 nM)” with rat IL-17F. The binding result in the assay with mouse IL-17F and with mouse IL-17A was “no binding (tested: 250 nM)” throughout.

B6: IL17MS3018 (VHH)
VHH: EVQLVESGGGLVQPGGSLRLSCAASGRTYDAMGWLRQAPGKEREFVAAISGSGDDTYYADSVKGRFTISKDNSGITMYLQMNSLRPEDTAVYYCATRRGLYYVWDSNDYENWGQGTLVTVSS
notes: basic variant of IL17MS13E02; Kabat numbering; also called IL17MS3018 basic
The term koff denotes a measure of how fast the partners let go of each other. The low end stands for a long-lived complex, the high end for a short-lived complex. B6: the koff in assay [1] was found to be 1.38e-05 s⁻¹; with human IL-17A [2], 9.26e-05 s⁻¹; with human IL-17F [3], 0.00267 s⁻¹. The “IC50 fold difference vs WT” value was found to be 0.8 fold with human IL-17F [4] and 1.13 fold in the assay with human IL-17A [5].

B7: 13E02 (VHH)
VHH: B6 VHH with P14A, S73A, R85K, L117Q
notes: Class 4; also called IL17MS13E02
B7: the binding result is on record as “no binding” with human IL-17E; “no binding” with human IL-17C; “no binding” in the assay with human IL-17B; “no binding” with human IL-17D; “no binding (tested: 250 nM)” with rat IL-17A; “no binding (tested: 250 nM)” in the assay with rat IL-17F. For the same molecule, the binding result with mouse IL-17F and in the assay with mouse IL-17A was “no binding (tested: 250 nM)” each time.

B8: IL17MS3032 (VHH)
VHH: B6 VHH with K70R, G74K, I75N
notes: variant of IL17MS13E02; Kabat numbering
For B8, the koff with human IL-17F [3] was 0.00083 s⁻¹. Also, the “IC50 fold difference vs WT” value amounted to 0.5 fold in the assay with human IL-17F [4] and 1.42 fold in the assay with human IL-17A [5].

B9: IL17MS3021 (VHH)
VHH: B6 VHH with G74K
notes: as for B8
Turning to B9, the dissociation rate constant (koff) in assay [1] turned out to be 6.43e-05 s⁻¹; in the assay with human IL-17A [2], 0.000216 s⁻¹; in the assay with human IL-17F [3] it was 0.00432 s⁻¹. The “IC50 fold difference vs WT” value was 0.9 fold in the assay with human IL-17F [4] and 2.75 fold in the assay with human IL-17A [5].

B10: IL17MS3020 (VHH)
VHH: B6 VHH with K70R
notes: as for B8
On to B10, for which the koff is below 1e-06 s⁻¹ in [1], 2.84e-05 s⁻¹ with human IL-17A [2] and 0.00147 s⁻¹ in the assay with human IL-17F [3]. Moreover, the figures for the “IC50 fold difference vs WT” value with human IL-17F [4] and with human IL-17A [5] were 1.3 fold and 1.24 fold, respectively.

B11: IL17MS3019 (VHH)
VHH: B6 VHH with L35F
notes: as for B8
On to B11, for which the koff in assay [1] worked out at 0.00031 s⁻¹; in the assay with human IL-17A [2], 0.000745 s⁻¹; with human IL-17F [3], 0.0349 s⁻¹. Besides, the “IC50 fold difference vs WT” value with human IL-17F [4] amounted to 4.6 fold; in the assay with human IL-17A [5], 3.72 fold.

B12: IL17MS3027 (VHH)
VHH: B6 VHH with K70R, I75N
notes: as for B8
Molecule B12 returned a koff with human IL-17F [3] of 0.0013 s⁻¹. Further, the “IC50 fold difference vs WT” value with human IL-17F [4] was 0.6 fold; in the assay with human IL-17A [5] it was 1.23 fold.

B13: IL17MS3022 (VHH)
VHH: B6 VHH with I75N
notes: as for B8
Turning to B13, the dissociation rate constant (koff) was 9.89e-06 s⁻¹ in assay [1], 6.41e-05 s⁻¹ with human IL-17A [2] and 0.0024 s⁻¹ with human IL-17F [3]. The “IC50 fold difference vs WT” value was found to be 0.9 fold in the assay with human IL-17F [4] and 1.17 fold with human IL-17A [5].
